Data on one molecule can be found in US20110207917A1 (PATRYS, published 2011).

This assay has as its target T1, CD55 antigen (coated on ELISA plate) (UniProt P08174 35-353, limits assumed).
T1 sequence (looked up): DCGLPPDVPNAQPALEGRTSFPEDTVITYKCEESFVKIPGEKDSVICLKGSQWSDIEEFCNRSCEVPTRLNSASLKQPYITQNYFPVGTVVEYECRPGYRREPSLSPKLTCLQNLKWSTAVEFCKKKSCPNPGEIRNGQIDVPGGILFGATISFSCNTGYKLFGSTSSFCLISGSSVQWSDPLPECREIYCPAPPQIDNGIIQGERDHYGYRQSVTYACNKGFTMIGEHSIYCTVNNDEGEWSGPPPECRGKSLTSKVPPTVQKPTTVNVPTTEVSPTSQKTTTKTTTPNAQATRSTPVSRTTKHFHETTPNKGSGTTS
As to the kind of experiment: ELISA on coated CD55 antigen (0.5 µg/well). As to the method: In brief, CD55 antigen (0.5 μg/well) was coated in a volume of 50 μl/well. The primary antibody was incubated at 12 μg/ml (0.6 μg/well). Buffer was pH6.5 and for the dilution buffer used was High salt pH8.0.
(An ELISA detects its analyte on a solid surface through an enzyme-linked reagent.)

B1: SAM-6 antibody (human IgM produced by hybridoma deposited as DSM ACC2903) (antibody, V domains shown)
VH: GGGVVQPGRSLRLSCAASGFTFSSYAMHWVRQAPGKGLEWVAVISYDGSNKYYADSVKGRFTISRDNSKNTLYLQMNSLRAEDTAVYYCARDRLAVAGRPFDYWGQGTLVTVSS
VL: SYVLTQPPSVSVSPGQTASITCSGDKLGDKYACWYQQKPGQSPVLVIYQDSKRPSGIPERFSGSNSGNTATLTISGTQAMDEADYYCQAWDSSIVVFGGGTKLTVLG
notes: Human IgM, lambda light chain, purified from hybridoma supernatant; CDR-H3 was not observed; also called SAM-6 HAB; SAM-6 HAB IgM
For B1, the binding result is reported as “no binding (tested: 12 µg/ml)”.
